{"source": "patent US20170362286A1", "target": "mKv1.3 (murine voltage-gated potassium channel Kv1.3) (mouse) (UniProt P16390)", "sequence (P16390 whole entry)": "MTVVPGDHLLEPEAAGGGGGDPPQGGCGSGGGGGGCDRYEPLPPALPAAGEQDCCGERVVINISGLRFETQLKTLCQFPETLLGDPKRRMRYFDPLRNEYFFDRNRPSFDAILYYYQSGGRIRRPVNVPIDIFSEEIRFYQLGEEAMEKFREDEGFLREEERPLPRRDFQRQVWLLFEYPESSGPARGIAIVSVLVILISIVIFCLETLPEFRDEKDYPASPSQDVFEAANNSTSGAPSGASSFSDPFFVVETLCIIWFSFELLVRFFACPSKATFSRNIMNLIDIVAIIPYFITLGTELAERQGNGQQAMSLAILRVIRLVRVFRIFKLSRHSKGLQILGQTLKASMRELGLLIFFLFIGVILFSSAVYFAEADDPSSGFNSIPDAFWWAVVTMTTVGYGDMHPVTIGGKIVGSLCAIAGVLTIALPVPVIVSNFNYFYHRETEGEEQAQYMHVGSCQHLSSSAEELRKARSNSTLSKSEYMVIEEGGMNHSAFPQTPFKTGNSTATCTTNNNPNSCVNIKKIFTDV", "test": "cell-based or functional assay", "note": "No end group written: not given here."}
{"binder": "EWSSRSCIDTIPKSRCTAFQCKHSMKYRLSFCRKTCGTC (not fully specified; ends and bridges not checked)", "note": "[[EWSS]ShK]", "values": [{"measurement": "IC50, potency against Kv1.3 channels (patch clamp)", "result": 33, "unit": "pM"}, {"measurement": "Selectivity (for Kv1.3 over Kv1.1, ratio of IC50s)", "result": 158, "unit": "fold"}]}
